How the values were obtained:
[1] = biological target: P79S stefin B variant (human) (UniProt P04080); experiment: SEC; KW-803 column (Shodex), HPLC with UV detection; 50 mM sodium phosphate, 100 mM NaCl, pH 7, 1 mM NaN3
[2] = biological target: P79S stefin B variant (human) (UniProt P04080); experiment: SEC; KW-803 column (Shodex), HPLC with UV detection; 15 mM sodium acetate, 150 mM NaCl, 1 mM NaN3, pH lowered to 4.7; tetramer to dimers and monomers
[3] = biological target: Stefin B construct (C3S, with glutamate polymorph at position 31) (human) (UniProt P04080); experiment: NMR (2D 1H15N HSQC amide peak intensities); apparent ratio of monomer to dimer from peaks of Q71, L73 and E76; pH 6.0, 0% TFE; 200 uM 15N protein (monomer equivalents), 100 mM NaCl, 25°C; dimer to monomers; the paper says the two species never reach equilibrium
[4] = biological target: Stefin B construct (C3S, with glutamate polymorph at position 31) (human) (UniProt P04080); experiment: NMR (2D 1H15N HSQC amide peak intensities); apparent ratio of monomer to dimer from peaks of Q71, L73 and E76; fibrillization conditions, pH 4.7 and 10% TFE, 15 mM sodium acetate, 25°C; dimer to monomers

stoichiometry N [1]	stoichiometry N [2]	ratio of monomer to dimer (monomer:dimer) [3]	ratio of monomer to dimer (monomer:dimer) [4]	Substance
4	2			P79S stefin B variant (from UniProt P04080 1-98) (natural protein)
		1	2	Stefin B construct (C3S, with glutamate polymorph at position 31) (from UniProt P04080 4-98) (natural protein)

Reference: publication PMC3469841
